For 5 substances, packaging efficiency with wild-type COPII, CHO-LDLRG544V cells and packaging efficiency with wild-type COPII, wild-type CHO cells results are on record in patent publication US20200179316A1.

The target of this test is Sec23a/Sec24d (full-length, wild type) (H. sapiens) (UniProt Q15436). The test can be described thus: cell-based or functional assay. To be noted: scale: % of protein present in starting permeabilized cells.
Sec23a/Sec24d (full-length, wild type) (H. sapiens), sequence (Q15436 whole entry, chain 1 of 2): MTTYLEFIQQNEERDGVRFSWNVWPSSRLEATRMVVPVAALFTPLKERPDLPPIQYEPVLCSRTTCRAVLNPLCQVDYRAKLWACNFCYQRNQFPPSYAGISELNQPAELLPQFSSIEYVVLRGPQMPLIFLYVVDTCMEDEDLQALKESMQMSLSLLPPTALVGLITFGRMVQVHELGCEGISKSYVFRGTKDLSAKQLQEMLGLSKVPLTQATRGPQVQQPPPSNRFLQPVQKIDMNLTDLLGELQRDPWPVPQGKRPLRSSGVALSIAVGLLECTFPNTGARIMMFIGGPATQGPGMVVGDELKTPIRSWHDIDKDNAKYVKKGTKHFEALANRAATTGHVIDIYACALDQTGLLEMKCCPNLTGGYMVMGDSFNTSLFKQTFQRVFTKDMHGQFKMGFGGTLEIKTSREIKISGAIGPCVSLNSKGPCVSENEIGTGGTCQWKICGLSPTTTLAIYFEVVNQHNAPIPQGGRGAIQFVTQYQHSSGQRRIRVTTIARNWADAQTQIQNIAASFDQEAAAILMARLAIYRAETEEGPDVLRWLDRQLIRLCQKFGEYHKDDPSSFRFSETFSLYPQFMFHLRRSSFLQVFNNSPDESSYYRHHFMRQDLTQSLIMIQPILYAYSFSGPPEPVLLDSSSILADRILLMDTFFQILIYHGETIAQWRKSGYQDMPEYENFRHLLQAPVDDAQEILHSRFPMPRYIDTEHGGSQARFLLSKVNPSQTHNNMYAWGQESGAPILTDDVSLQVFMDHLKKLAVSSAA
Sec23a/Sec24d (full-length, wild type) (H. sapiens), sequence (O94855 other isoform, or with tags, fused parts or gaps, chain 2 of 2, further chain): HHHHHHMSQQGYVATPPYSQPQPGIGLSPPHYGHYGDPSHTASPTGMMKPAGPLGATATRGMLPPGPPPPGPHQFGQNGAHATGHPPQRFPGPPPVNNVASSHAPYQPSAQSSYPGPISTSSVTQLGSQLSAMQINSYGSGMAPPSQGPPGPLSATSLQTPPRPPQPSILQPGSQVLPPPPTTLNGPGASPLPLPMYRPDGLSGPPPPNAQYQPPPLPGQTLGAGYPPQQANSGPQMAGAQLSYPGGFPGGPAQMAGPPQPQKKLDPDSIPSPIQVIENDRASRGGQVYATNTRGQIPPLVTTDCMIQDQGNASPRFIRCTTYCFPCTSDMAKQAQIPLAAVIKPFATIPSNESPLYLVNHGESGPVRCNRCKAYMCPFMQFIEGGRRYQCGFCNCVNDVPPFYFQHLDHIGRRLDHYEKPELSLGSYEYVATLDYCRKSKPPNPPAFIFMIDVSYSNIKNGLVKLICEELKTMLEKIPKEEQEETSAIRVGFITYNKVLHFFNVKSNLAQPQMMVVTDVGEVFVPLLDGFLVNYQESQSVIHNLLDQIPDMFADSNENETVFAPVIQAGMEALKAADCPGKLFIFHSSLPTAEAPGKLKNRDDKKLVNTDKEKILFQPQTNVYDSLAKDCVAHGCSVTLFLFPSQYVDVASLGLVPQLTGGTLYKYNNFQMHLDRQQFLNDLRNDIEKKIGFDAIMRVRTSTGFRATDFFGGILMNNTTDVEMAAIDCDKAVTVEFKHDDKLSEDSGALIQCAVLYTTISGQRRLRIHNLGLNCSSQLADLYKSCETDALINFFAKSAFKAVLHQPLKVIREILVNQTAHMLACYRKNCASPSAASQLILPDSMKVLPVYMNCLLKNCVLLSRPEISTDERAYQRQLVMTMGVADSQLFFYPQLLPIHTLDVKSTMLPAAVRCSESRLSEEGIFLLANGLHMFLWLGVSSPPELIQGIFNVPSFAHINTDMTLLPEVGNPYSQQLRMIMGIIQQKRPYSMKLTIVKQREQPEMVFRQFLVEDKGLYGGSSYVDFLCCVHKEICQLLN
For the substance p24α2, the packaging efficiency with wild-type COPII, CHO-LDLRG544V cells was determined as 8.7 and the packaging efficiency with wild-type COPII, wild-type CHO cells amounted to 10.9.
Regarding p24β1, the packaging efficiency with wild-type COPII, CHO-LDLRG544V cells was 10.6.
p24δ1 showed a packaging efficiency with wild-type COPII, CHO-LDLRG544V cells of 7.7 and a packaging efficiency with wild-type COPII, wild-type CHO cells of 4.6.
On to ERGIC-53, for which the packaging efficiency with wild-type COPII, CHO-LDLRG544V cells turned out to be 4.5.
As for p24α3, the packaging efficiency with wild-type COPII, CHO-LDLRG544V cells was found to be 6.4 and the packaging efficiency with wild-type COPII, wild-type CHO cells turned out to be 6.4.
